Several values for one entry are separate records, joined by “and”; a condition that tells them apart may be missing. Equal values may be shown once.
B1: human CD48-Fc-NKG2A chimeric protein (Fc fusion)
chain: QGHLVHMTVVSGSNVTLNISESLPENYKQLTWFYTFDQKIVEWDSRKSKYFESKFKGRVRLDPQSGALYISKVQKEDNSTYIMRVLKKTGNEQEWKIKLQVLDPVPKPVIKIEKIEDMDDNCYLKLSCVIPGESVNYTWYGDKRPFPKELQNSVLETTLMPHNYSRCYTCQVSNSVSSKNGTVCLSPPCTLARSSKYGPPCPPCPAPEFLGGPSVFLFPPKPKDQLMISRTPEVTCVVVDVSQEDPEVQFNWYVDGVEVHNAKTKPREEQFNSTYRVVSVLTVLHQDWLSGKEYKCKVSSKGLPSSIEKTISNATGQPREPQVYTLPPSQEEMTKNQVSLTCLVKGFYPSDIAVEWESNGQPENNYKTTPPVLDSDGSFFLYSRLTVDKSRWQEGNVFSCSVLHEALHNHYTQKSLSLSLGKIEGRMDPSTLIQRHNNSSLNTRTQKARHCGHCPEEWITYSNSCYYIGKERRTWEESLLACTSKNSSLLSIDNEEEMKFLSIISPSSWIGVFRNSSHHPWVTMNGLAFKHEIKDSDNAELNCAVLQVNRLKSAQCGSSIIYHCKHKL
notes: also called hCD48-Fc-NKG2A
B2: mouse CD80-Fc-NKG2A chimeric protein (Fc fusion)
chain: VDEQLSKSVKDKVLLPCRYNSPHEDESEDRIYWQKHDKVVLSVIAGKLKVWPEYKNRTLYDNTTYSLIILGLVLSDRGTYSCVVQKKERGTYEVKHLALVKLSIKADFSTPNITESGNPSADTKRITCFASGGFPKPRFSWLENGRELPGINTTISQDPESELYTISSQLDFNTTRNHTIKCLIKYGDAHVSEDFTWEKPPEDPPDSKNVPRDCGCKPCICTVPEVSSVFIFPPKPKDVLTITLTPKVTCVVVDISKDDPEVQFSWFVDDVEVHTAQTQPREEQFNSTFRSVSELPIMHQDWLNGKEFKCRVNSAAFPAPIEKTISKTKGRPKAPQVYTIPPPKEQMAKDKVSLTCMITDFFPEDITVEWQWNGQPAENYKNTQPIMDTDGSYFVYSKLNVQKSNWEAGNTFTCSVLHEGLHNHHTEKSLSHSPGIIEGRMDTPYTEAKAQINSSMTRTHRDINYTLSSAQPCPHCPKEWISYSHNCYFIGMERKSWNDSLVSCISKNCSLLYIDSEEEQDFLQSLSLISWTGILRKGRGQPWVWKEDSIFKPKIAEILHDECNCAMMSASGLTADNCTTLHPYLCKCKFPI
notes: also called mCD80-Fc-NKG2A; mCD80-Fc-NKG2a

Assays:
[1] = biological target: T1, recombinant HLA-E-His protein (human, UniProt P13747 22-305, limits assumed); assay: ELISA: the chimeric protein is the titrated coat (1:3), detection HLA-E-His (Novus NBP2-47435PEP), HRP Anti-6x-His-HRP
T1 construct: also called recombinant HLA-E (HLA-E-His); not shown: His tag
T1 sequence (P13747 22-305 limits assumed): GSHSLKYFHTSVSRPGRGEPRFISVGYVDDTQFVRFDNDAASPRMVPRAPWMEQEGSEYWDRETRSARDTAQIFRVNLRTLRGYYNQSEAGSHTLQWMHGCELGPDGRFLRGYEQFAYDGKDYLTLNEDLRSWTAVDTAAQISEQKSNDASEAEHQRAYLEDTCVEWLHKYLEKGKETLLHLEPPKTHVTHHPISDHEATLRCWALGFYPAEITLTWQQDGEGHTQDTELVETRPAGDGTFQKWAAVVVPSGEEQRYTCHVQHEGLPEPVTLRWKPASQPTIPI
Procedure: In a complementary experiment, increasing amounts of the hCD48-Fc-NKG2A, hCD58-Fc-NKG2A, and hCD80-Fc-NKG2A chimeric proteins or a negative control protein was coated on plates. Recombinant HLA-E-His protein was added to the plates for capture by the plate-bound chimeric proteins or the negative control protein. The captured HLA-E-His protein was detected using an anti-6×-His-HRP antibody.

[2] = biological target: T2, recombinant human 2B4-Fc fusion protein (rh2B4-Fc) (human, UniProt Q9BZW8-2 22-221, limits assumed); assay: dual ELISA; coat rh2B4-Fc (for SL-048), CD48-Fc-NKG2a titrated, detection HLA-E-His, Anti 6x-His-HRP; the signal needs both bindings
T2 construct: not shown: Fc
T2 sequence (looked up): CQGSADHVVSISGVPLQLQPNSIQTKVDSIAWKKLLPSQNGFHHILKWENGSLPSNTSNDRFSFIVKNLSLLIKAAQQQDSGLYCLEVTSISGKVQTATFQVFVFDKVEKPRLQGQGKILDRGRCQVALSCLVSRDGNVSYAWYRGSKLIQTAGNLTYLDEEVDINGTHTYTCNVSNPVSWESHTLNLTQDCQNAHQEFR
Procedure: (i) recombinant human 2B4-Fc fusion protein (rh2B4-Fc) was coated on plates. Increasing amounts of the hCD48-Fc-NKG2A or hCD86-Fc-NKG2A chimeric proteins were added and detected using HLA-E-His. The hCD86-Fc-NKG2A chimeric protein was used as a negative control (Negative control #1). […] (ii) recombinant human CD2-Fc fusion protein (rhCD2-Fc) was coated on plates. Increasing amounts of the hCD58-Fc-NKG2A or hCD86-Fc-NKG2A chimeric proteins were added and detected using HLA-E-His. The hCD86-Fc-NKG2A chimeric protein was used as a negative control (Negative control #2).
To understand whether the hCD48-Fc-NKG2A chimeric protein can bind simultaneously to both 2B4 and HLA-E, the following ELISA experiment was carried out. Briefly, and recombinant 2B4 (rh2B4-Fc) protein was coated on plates. Increasing amounts of the hCD48-Fc-NKG2A chimeric protein was added to the plates for capture by the recombinant human 2B4-Fc (rh2B4-Fc) protein. Further, recombinant HLA-E (HLA-E-His) protein was added to the plate for capture by hCD48-Fc-NKG2A chimeric proteins. The binding of the HLA-E-His protein was detected using an anti-His 6× HRP antibody.

[3] = biological target: T3, recombinant human 2B4 protein (rh2B4-His) (human, UniProt Q9BZW8-2 22-221, limits assumed); assay: ELISA: coat h2B4-His (Sino #10042-H08H), detection printed as Anti-mFc-HRP (Jax 115-036-003)
T3 construct: also called recombinant 2B4-His protein; not shown: His tag
T3 sequence (looked up): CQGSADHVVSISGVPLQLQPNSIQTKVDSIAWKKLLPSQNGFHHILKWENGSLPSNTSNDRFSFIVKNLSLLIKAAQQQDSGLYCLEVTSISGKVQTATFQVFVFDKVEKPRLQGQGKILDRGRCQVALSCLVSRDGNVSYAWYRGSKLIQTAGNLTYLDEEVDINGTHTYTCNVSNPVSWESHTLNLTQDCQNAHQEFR
Procedure: (§1) CD48 binds 2B4 (CD244), a member of the signaling lymphocyte-activation molecule (SLAM) family. To understand whether the CD48 part of the hCD48-Fc-NKG2A chimeric protein can bind […], ELISA-based assays were performed. Briefly, recombinant 2B4-His protein was coated on plates. Human CD28-His protein coated on negative control plates. Increasing amounts of the hCD48-Fc-NKG2A chimeric protein was added to the plates for capture by the plate-bound recombinant 2B4-His protein. […]

[4] = biological target: T4, anti-human IgG antibody (plate-bound); assay: ELISA (single sided Fc): coat Anti-Human IgG (H+L) Jax# 109-005-088, detection HRP Goat anti-human FCgamma
T4 construct: also called anti-human Fc antibody
Procedure: In another set of experiments, an anti-human IgG antibody was coated on plates and increasing amounts of the hCD48-Fc-NKG2A, hCD58-Fc-NKG2A, and hCD80-Fc-NKG2A chimeric proteins, and a human IgG antibody were added to the plates for capture by the plate-bound […]. The human IgG antibody was used as a positive control and to generate a standard curve. The binding to the anti-human IgG antibody was detected using an anti-human Fcgamma HRP.

[5] = biological target: T3, recombinant human 2B4 protein …; assay: ELISA: coat rh2B4-His (Sino 10042-H08H), detection Anti-hFc-HRP
Procedure: (§2) Increasing amounts of the indicated chimeric proteins or rhCD48-Fc were added and detected using an anti-mFc-HRP (for mCD80-Fc-NKG2A) or anti-hFc-HRP (for rest of the proteins).
(§3) CD48 is the ligand for 2B4. To understand whether the CD48 parts of the hCD48-Fc-NKG2A chimeric protein can bind 2B4, ELISA-based assays were performed. Briefly, recombinant human 2B4 protein (rh2B4-His) was coated on plates and increasing amounts of the hCD48-Fc-NKG2A and mCD80-Fc-NKG2A chimeric proteins and recombinant human CD48-Fc (rhCD48-Fc) protein was added to the plates for capture by the plate-bound recombinant 2B4 protein. The hCD48-Fc-NKG2A chimeric protein and recombinant human CD48-Fc (rhCD48-Fc) protein bound to the recombinant 2B4 protein was detected using an anti-human Fc HRP. The mCD80-Fc-NKG2A chimeric protein, which was used as a negative control, bound to the recombinant 2B4 protein was detected using an anti-mouse Fc HRP.

[6] = biological target: T5, recombinant human CD28-His (rhCD28-His) (human, UniProt P10747 19-152); assay: ELISA: coat hCD28-His (negative control coat), detection printed as Anti-mFc-HRP (Jax 115-036-003)
T5 construct: also called Human CD28-His protein; recombinant CD28 protein; not shown: His tag
T5 sequence (P10747 19-152 limits assumed): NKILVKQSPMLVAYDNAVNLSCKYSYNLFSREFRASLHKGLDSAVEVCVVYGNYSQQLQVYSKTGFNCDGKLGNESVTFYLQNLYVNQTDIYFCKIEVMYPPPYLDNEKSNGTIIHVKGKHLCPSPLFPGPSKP
Procedure: as §1

[7] = biological target: T6, recombinant human CD2 protein (rhCD2-His) (human, UniProt P06729 25-209); assay: ELISA: coat rhCD2-His (Acro CD2-H5226), detection Anti-hFc-HRP
T6 construct: also called recombinant CD2 protein; not shown: His tag
T6 sequence (looked up): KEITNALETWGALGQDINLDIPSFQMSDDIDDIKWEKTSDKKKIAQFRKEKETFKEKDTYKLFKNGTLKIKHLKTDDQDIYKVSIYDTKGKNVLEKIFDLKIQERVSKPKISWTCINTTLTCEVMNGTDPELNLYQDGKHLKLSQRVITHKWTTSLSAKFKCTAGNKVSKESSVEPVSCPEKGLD
Procedure: (§4) Recombinant human CD2 (rhCD2) protein was coated on plates. Increasing amounts of the indicated chimeric proteins or Recombinant human CD58-Fc fusion protein (rhCD58-Fc) were added and detected using an anti-mFc-HRP (for mCD80-Fc-NKG2A) or anti-hFc-HRP (for rest of the proteins).
(§5) CD2 is a transmembrane protein in T cells that binds to its ligand CD58 on APC in humans and on CD48 in rodents. To understand whether the CD48 and CD58 parts of the hCD48-Fc-NKG2A, and hCD58-Fc-NKG2A chimeric protein can bind CD2, ELISA-based assays were performed. Briefly, recombinant human CD2 protein (rhCD2-His) was coated on plates and increasing amounts of the hCD48-Fc-NKG2A, hCD58-Fc-NKG2A, and mCD80-Fc-NKG2A chimeric proteins and recombinant hCD58-Fc protein was added to the plates for capture by the plate-bound recombinant CD2 protein. The […] chimeric protein served as a negative control and recombinant hCD58-Fc protein served as a positive control. The hCD48-Fc-NKG2A and hCD58-Fc-NKG2A, chimeric proteins and recombinant hCD58-Fc protein bound to the recombinant CD2 protein was detected using an anti-human Fc HRP. The mCD80-Fc-NKG2A chimeric protein bound to the recombinant CD2 protein was detected using an anti-mouse Fc HRP.

[8] = biological target: mCTLA-4, plate-bound (mouse, UniProt P09793 36-162, limits assumed); assay: ELISA (single-sided): coat mCTLA-4-Fc (Acro), detect Anti-mFc-HRP (Jax)
[9] = biological target: T7, HLA class I histocompatibility antigen, alpha chain E (HLA-E), plate-bound recombinant protein (human, UniProt P13747 22-305, limits assumed); assay: ELISA (single-sided): coat hHLA-E (NOVUS), detect Anti-mFc-HRP (Jax)
T7 construct: no tag named there; also called recombinant HLA-E protein
T7 sequence (P13747 22-305 limits assumed): as the sequence (P13747 22-305 limits assumed) above

[10] = biological target: T8, mCD28, plate-bound (mouse, UniProt P31041 20-149, limits assumed); assay: ELISA (single-sided): coat mCD28-Fc (Acro), detect Anti-mFc-HRP (Jax)
T8 sequence (looked up): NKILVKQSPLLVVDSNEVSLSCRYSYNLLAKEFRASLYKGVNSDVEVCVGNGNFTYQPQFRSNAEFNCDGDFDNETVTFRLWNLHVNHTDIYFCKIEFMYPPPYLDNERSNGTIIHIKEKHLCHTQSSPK

[11] = biological target: T9, anti-mFc IgG antibody (plate-bound); assay: Fc ELISA: coat Anti-mFc (Jax), detect Anti-mFc-HRP (Jax)
T9 construct: also called anti-Fc antibody
Description: A mouse whole IgG was used to generate a standard curve.

[12] = biological target: T3, recombinant human 2B4 protein …; assay: ELISA: coat rh2B4-His (Sino 10042-H08H), detection Anti-mFc-HRP for mCD80
Procedure: as §2, §3

[13] = biological target: T6, recombinant human CD2 protein …; assay: ELISA: coat rhCD2-His (Acro CD2-H5226), detection Anti-mFc-HRP for mCD80
Procedure: as §4, §5

[14] = biological target: T10, mTGFβ1, recombinant, plate-bound (mouse, UniProt P04202 279-390, limits assumed); assay: ELISA: coat mTGFB1 (R+D 7666-MB), detection Anti-mFc-HRP
T10 construct: also called recombinant TGFβ1 protein
T10 sequence (P04202 279-390 limits assumed): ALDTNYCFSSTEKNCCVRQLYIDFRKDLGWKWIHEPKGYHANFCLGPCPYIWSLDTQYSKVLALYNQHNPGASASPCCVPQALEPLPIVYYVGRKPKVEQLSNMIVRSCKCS
Procedure: TGFβ1 is a ligand of TGFBR2. To understand whether the TGFBR2 part of the TGFBR2-Fc-NKG2A chimeric protein can bind TGFβ1, ELISA-based assays were performed. Briefly, recombinant TGFβ1 protein was coated on plates and increasing amounts of the TGFBR2-Fc-NKG2A chimeric protein was added to the plates for capture by the plate-bound recombinant TGFβ1 protein. The chimeric protein bound to the recombinant TGFβ1 protein was detected using an anti-mFc HRP.

Binder | EC50 (read off the curve) [1] [µg/mL] | EC50 (read off the curve) [2] [µg/mL] | EC50 (read off the curve) [3] [µg/mL] | EC50 (read off the curve) [4] [µg/mL] | EC50 (read off the curve) [5] [µg/mL] | binding result [6] | binding result [7] | EC50 [8] | EC50 [9] | EC50 [10] | EC50 [11] | binding result [12] | binding result [13] | binding result [14]
B1 | ~2 | ~50 | ~2 | ~0.7 | ~2 | no binding (tested: log[Agonist] about 2.7, ug/ml) | binds | – | – | – | – | – | – | –
B2 | – | – | – | – | – | – | – | 0.958 nM and 0.705 nM | 247 nM and 140 nM | 30.8 nM and 22.6 nM | 2.02 nM and 1.36 nM | no binding (tested: log[Agonist] about 2.7, ug/ml) | no binding (tested: log[Agonist] about 2.7, ug/ml) | no binding (tested: log[Agonist] about 2.7, ug/ml)

From US20200399344A1 (SHATTUCK LABS, published 2020)
